Measurements published in PMC4943861 (ACS chemical biology, 2015).

Tests used:
Abl3D = Abl3D (UniProt P00519 38-512); test: cell-based or functional assay
Fyn = Fyn (human (endogenous in K562), UniProt P06241 1-537); test: cell-based or functional assay
Chain of Fyn (P06241 whole entry): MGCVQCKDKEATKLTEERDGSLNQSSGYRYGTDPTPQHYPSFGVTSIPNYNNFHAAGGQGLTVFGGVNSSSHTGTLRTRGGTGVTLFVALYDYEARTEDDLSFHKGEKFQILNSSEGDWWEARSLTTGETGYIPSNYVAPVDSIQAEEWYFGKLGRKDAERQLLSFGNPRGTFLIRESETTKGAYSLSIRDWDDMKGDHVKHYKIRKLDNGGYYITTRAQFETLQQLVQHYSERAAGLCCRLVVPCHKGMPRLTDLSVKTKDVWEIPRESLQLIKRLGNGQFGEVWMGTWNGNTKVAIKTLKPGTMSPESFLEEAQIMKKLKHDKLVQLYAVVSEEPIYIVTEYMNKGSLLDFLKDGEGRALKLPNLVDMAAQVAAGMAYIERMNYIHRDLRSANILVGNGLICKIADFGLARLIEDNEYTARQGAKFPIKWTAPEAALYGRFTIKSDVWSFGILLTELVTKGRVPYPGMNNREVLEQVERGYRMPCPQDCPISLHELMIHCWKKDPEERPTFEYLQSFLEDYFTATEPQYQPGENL

Chain of Abl3D (P00519 38-512): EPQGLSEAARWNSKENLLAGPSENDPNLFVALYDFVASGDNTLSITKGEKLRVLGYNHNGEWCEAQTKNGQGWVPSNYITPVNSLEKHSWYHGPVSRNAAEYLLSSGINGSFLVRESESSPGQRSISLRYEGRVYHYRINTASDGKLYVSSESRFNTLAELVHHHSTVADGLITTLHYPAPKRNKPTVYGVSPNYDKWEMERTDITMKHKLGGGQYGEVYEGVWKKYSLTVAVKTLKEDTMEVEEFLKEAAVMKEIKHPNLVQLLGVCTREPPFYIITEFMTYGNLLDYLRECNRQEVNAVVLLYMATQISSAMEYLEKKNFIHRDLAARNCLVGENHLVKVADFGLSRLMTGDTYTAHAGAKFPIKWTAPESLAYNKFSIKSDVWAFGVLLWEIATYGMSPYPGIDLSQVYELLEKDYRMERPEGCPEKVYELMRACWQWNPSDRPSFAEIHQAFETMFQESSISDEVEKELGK

- IC50, in vitro kinase activity assay of Abl3D (Abl3D): 8.3 nM
- IC50 of kinase activity of purified FYN, relative to monovalent 4 (Fyn): 8 fold more potent than 4
B1: SNAP(HA4)-4 (designed binder)
chain: DKDCEMKRTTLDSPLGKLELSGCEQGLHEIIFLGKGTSAADAVEVPAPAAVLGGPEPLMQATAWLNAYFHQPEAIEEFPVPALHHPVFQQESFTRQVLWKLLKVVKFGEVISYSHLAALAGNPAATAAVKTALSGNPVPILIPCHRVVQGDLDVGGYEGGLAVKEWLLAHEGHRLGKVSSVPTKLEVVAATPTSLLISWDAPMSSSSVYYYRITYGETGGNSPVQEFTVPYSSSTATISGLSPGVDYTITVYAWGEDSAGYMFMYSPISINYRT
modifications: compound 4 (O6-benzylguanine derivative of the pan-kinase inhibitor 2) covalently conjugated to SNAPtag
